Biological target: human MUC16 (mucin 16), endogenously expressed on cells (human)
Experiment: MSD electrochemiluminescence cell binding; RLU ratio OVCAR-3/SK-OV-3; Ab […]; NS = Non-Specific, ratio <2.5-fold

Row | Substance | Ratio: anti-MUC16 Binding OVCAR-3/SK-OV-3
1 | hIgG1 Isotype Control Antibody | < 2.5
2 | mIgG1 Isotype Control Antibody | < 2.5
3 | mIgG2a Isotype Control Antibody | < 2.5

Source: patent US20180112001A1
